Assay results as given in patent publication US7261890.
Values belong to the binder of their own block, whether it stands above or below them.

Columns and labels:
[1] = molecular target: recombinant canine IgE (canine); assay: OD of IgE binding ELISA divided by IgG expression relative to chimeric 15A2, COS supernatant
[2] = molecular target: recombinant canine IgE (canine); assay: IgE binding ELISA of COS supernatant; second number is the relative expression level
[3] = molecular target: recombinant canine IgE (canine); assay: IgE binding ELISA, COS supernatant on plate-coated recombinant canine IgE, anti-dog Fc-HRP
[4] = molecular target: recombinant canine IgE (canine); assay: IgE binding ELISA of COS supernatant; in this cell the order is reversed (2.4 is the relative expression of Table 5, 0 the OD)

Ratio IgE Binding/Expression [1]: 13
OD of IgE Binding (printed over relative expression level) [2]: 1.3 OD 650 nm
OD at 650 nm (IgE Binding) [3]: 1.3 OD 650 nm
B1: H74-1 caninized heavy chain with 15A2 chimeric light chain Lx (antibody, part only; not given: constant regions, V domains shown, part only)
VH: EVQLVQSAAEVKKPGASVKVSCKTSGYSFTDYFMNWVQQAPGAGLDWMGRINPFNGDPFYNQKFKGRVTLTADTSTSTAYMELSSLRAEDAAVYYCARFYYGRYYAMDYWGQGTLVTV

OD of IgE Binding (printed over relative expression level) [4]: 0 OD 650 nm
B2: H74-1 / Group 2-1 (CDR-grafted caninized 15A2, heavy and light) (antibody, part only; not given: constant regions, V domains shown, part only)
VH: B1 VH
